From PMC9243176, “Multifaceted regulation of the sumoylation of the Sgs1 DNA helicase” (The Journal of Biological Chemistry, 2022)
Each block holds one binder with its values, some of them ahead of it.

Assays:
GST-Esc2-5E = target: T1, GST-Esc2-5E (budding yeast, UniProt Q06340 1-456, K179E | K182E | K183E | K197E | R198E); test: pull-down; GST or GST-tagged Esc2 or variants (2.2 μM) incubated with 3.6 μM Ubc9 in T buffer (25 mM Tris-Cl pH 7.4, 10% glycerol, 0.5 mM EDTA, 0.01% Igepal, 1 mM DTT) with 80 mM KCl, 30 min at 4 °C; captured on Glutathione Sepharose 4B; SDS-PAGE, Coomassie blue stain; conditions: both partners purified
T1 construct: Esc2 of budding yeast with five basic residues of the midregion (MR) replaced by glutamic acid; The methods describe a pET24a construct; source: expressed and purified by published procedures
T1 sequence (looked up): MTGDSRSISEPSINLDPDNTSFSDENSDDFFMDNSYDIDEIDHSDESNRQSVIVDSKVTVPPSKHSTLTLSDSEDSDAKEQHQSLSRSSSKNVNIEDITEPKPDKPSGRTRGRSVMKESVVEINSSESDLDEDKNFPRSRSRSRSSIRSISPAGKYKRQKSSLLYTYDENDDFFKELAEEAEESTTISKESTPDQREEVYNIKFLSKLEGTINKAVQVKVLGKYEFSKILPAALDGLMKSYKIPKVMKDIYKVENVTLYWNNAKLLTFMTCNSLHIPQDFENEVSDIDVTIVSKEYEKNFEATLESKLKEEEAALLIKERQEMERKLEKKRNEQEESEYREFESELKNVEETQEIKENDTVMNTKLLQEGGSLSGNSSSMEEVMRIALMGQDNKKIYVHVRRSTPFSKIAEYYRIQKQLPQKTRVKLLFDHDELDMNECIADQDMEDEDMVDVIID

GST-Esc2-MRΔ = target: T2, GST-Esc2-MRΔ (budding yeast, UniProt Q06340 1-456, truncating residues 154 to 198); test: as above; conditions: both partners purified
T2 construct: Esc2 of budding yeast lacking the midregion (MR), residues 154 to 198; The methods describe a pET24a construct; source: expressed and purified by published procedures
T2 sequence (looked up): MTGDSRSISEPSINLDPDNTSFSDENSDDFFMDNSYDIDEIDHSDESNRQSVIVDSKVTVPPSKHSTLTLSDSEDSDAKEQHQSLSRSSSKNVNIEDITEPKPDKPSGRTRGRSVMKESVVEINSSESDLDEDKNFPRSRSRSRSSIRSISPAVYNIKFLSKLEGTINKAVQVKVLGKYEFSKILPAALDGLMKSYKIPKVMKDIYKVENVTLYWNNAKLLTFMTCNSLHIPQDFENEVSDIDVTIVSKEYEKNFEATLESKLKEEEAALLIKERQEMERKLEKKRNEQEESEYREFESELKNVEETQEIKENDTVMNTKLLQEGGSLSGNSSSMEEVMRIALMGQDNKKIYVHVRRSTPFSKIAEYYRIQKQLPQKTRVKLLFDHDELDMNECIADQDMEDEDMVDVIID

Esc2 = target: T3, Esc2 (Saccharomyces cerevisiae, UniProt Q06340 1-456); test: EMSA; 5-80 nM Esc2, 5 nM DNA; strong preference over dsDNA; 35 mM Tris-HCl pH 7.5, 1 mM DTT, 100 ug/ml BSA, 5 mM MgCl2, 130 mM KCl, 30 C, 10 min; native PAGE in TAE (6.5% STR and E3, 7% Esc2); conditions: protein: recombinant; four-way Holliday junction of 4 strands
T3 sequence: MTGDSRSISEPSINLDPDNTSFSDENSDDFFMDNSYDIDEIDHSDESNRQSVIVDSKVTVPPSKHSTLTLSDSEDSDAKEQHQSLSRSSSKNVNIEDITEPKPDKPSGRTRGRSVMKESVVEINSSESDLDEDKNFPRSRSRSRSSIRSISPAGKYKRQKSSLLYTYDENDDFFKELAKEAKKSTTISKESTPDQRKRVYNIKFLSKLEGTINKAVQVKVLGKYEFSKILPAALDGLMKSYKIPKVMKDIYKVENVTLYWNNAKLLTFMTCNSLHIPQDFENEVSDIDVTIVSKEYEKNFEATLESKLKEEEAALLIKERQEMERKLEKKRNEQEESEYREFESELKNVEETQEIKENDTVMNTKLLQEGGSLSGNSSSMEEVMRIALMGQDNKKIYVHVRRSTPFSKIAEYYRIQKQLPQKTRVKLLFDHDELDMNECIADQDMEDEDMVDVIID

Esc2-MRΔ = target: T4, Esc2-MRΔ (Saccharomyces cerevisiae, UniProt Q06340 1-456, del154-198); test: EMSA; 5-80 nM protein, 5 nM DNA; 35 mM Tris-HCl pH 7.5, 1 mM DTT, 100 ug/ml BSA, 5 mM MgCl2, 130 mM KCl, 30 C, 10 min; native PAGE in TAE (6.5% STR and E3, 7% Esc2); conditions: protein: recombinant
T4 sequence: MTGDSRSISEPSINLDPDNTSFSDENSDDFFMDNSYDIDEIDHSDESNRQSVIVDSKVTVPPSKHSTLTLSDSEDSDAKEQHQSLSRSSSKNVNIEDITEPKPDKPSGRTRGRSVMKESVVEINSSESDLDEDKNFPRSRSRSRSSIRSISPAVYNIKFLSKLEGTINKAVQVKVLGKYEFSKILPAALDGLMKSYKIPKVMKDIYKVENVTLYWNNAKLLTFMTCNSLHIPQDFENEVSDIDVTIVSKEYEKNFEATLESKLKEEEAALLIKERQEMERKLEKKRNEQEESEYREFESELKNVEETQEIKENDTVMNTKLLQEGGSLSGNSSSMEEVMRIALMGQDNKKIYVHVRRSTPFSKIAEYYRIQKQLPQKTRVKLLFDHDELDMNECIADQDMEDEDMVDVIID

Esc2-5E = target: T5, Esc2-5E (Saccharomyces cerevisiae, UniProt Q06340 1-456, K179E;K182E;K183E;K197E;R198E); test: as above; conditions: protein: recombinant
T5 sequence: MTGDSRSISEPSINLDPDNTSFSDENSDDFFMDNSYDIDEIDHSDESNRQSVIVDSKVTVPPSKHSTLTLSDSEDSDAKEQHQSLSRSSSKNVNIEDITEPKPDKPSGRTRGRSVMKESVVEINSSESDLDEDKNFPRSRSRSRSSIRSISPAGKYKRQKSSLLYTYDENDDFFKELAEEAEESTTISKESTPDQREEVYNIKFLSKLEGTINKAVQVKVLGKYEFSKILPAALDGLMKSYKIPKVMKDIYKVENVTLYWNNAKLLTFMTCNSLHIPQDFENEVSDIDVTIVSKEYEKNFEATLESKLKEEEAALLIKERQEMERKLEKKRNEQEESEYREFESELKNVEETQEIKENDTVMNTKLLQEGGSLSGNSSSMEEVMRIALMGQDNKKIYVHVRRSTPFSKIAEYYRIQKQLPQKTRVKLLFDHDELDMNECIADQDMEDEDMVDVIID

Sgs1;Top3;Rmi1 [1] = target: T6, Sgs1;Top3;Rmi1 (Saccharomyces cerevisiae;Saccharomyces …, UniProt P35187;P13099;Q02685 1-1447;1-656;1-241, ||); test: EMSA; 5-40 nM STR, 5 nM DNA; 35 mM Tris-HCl pH 7.5, 1 mM DTT, 100 ug/ml BSA, 5 mM MgCl2, 130 mM KCl, 30 C, 10 min; native PAGE in TAE (6.5% STR and E3, 7% Esc2); conditions: protein: recombinant;recombinant;recombinant; tags: Flag;V5;GST; copies: 1;1;1; four-way Holliday junction of 4 strands
T6 sequence (P35187 whole entry, chain 1 of 3): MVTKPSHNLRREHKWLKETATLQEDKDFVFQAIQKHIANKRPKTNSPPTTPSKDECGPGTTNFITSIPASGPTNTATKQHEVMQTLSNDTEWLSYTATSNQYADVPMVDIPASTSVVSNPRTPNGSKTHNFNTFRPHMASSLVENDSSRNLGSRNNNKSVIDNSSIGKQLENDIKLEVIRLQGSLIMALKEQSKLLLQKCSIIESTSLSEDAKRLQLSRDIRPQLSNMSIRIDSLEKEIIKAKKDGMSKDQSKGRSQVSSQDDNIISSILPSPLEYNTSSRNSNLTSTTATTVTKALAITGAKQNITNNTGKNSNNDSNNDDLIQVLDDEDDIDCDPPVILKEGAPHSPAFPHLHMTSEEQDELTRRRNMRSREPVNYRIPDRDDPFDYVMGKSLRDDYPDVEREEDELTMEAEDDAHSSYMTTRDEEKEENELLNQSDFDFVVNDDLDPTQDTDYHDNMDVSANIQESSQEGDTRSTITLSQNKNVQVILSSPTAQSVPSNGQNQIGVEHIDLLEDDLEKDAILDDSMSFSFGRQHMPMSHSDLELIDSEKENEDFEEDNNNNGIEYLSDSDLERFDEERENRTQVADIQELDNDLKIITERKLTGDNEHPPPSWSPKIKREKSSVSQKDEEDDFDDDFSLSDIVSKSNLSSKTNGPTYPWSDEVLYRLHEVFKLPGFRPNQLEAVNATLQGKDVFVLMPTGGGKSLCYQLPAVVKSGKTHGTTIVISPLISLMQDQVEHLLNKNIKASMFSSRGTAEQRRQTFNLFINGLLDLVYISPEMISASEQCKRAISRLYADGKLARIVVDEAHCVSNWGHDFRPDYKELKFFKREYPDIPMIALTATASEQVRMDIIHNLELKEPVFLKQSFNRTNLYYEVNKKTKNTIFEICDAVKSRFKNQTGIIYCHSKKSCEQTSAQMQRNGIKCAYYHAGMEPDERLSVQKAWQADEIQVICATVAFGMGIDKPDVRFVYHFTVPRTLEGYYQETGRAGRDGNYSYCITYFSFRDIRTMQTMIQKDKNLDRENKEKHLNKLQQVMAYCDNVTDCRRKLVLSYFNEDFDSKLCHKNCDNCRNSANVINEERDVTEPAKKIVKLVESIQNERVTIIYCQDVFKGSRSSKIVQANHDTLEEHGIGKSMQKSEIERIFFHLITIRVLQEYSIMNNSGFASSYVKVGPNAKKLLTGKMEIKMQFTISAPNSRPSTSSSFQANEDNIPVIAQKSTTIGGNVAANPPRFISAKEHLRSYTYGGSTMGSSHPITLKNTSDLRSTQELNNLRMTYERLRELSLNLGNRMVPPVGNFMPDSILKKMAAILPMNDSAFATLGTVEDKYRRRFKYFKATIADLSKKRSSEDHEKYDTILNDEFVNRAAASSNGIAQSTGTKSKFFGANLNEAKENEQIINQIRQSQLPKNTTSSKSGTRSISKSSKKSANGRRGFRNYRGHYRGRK
T6 sequence (P13099 whole entry, chain 2 of 3): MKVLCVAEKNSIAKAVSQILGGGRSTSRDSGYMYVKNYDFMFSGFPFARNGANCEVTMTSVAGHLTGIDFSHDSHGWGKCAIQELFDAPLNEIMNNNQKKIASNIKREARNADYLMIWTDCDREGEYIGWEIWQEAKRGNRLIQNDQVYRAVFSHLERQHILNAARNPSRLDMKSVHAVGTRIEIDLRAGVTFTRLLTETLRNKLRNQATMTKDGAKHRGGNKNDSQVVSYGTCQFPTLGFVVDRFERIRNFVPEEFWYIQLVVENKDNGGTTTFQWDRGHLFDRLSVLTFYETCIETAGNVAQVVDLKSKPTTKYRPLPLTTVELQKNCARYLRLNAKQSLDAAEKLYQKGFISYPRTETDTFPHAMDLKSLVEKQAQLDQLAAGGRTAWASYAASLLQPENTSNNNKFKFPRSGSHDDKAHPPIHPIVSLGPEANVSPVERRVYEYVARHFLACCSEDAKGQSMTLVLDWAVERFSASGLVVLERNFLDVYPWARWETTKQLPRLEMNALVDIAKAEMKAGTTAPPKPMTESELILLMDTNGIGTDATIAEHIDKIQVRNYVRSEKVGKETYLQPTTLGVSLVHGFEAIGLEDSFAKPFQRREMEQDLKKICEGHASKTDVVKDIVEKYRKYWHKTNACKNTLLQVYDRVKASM
T6 sequence (Q02685 whole entry, chain 3 of 3): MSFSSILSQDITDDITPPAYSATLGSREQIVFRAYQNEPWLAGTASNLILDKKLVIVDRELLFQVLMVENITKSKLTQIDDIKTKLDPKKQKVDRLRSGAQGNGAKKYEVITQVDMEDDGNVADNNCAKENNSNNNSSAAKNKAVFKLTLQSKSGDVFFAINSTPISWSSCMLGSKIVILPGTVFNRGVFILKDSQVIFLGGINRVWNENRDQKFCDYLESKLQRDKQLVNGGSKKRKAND

Mms21;Smc5 = target: T7, Mms21;Smc5 (Saccharomyces cerevisiae;Saccharomyces …, UniProt P38632;Q08204 1-267;1-1093, |); test: EMSA; 5-40 nM E3, 5 nM DNA; less pronounced than STR; 35 mM Tris-HCl pH 7.5, 1 mM DTT, 100 ug/ml BSA, 5 mM MgCl2, 130 mM KCl, 30 C, 10 min; native PAGE in TAE (6.5% STR and E3, 7% Esc2); conditions: protein: recombinant;recombinant; tags: ;; copies: 1;1; four-way Holliday junction of 4 strands
T7 sequence 1: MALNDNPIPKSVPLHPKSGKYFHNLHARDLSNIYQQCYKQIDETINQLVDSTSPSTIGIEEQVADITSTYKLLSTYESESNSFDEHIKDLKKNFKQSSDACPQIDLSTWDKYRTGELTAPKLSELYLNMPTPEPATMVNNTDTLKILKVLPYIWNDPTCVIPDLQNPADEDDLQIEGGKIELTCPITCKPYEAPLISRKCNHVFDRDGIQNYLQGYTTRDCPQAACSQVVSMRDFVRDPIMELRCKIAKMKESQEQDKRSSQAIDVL
T7 sequence 2: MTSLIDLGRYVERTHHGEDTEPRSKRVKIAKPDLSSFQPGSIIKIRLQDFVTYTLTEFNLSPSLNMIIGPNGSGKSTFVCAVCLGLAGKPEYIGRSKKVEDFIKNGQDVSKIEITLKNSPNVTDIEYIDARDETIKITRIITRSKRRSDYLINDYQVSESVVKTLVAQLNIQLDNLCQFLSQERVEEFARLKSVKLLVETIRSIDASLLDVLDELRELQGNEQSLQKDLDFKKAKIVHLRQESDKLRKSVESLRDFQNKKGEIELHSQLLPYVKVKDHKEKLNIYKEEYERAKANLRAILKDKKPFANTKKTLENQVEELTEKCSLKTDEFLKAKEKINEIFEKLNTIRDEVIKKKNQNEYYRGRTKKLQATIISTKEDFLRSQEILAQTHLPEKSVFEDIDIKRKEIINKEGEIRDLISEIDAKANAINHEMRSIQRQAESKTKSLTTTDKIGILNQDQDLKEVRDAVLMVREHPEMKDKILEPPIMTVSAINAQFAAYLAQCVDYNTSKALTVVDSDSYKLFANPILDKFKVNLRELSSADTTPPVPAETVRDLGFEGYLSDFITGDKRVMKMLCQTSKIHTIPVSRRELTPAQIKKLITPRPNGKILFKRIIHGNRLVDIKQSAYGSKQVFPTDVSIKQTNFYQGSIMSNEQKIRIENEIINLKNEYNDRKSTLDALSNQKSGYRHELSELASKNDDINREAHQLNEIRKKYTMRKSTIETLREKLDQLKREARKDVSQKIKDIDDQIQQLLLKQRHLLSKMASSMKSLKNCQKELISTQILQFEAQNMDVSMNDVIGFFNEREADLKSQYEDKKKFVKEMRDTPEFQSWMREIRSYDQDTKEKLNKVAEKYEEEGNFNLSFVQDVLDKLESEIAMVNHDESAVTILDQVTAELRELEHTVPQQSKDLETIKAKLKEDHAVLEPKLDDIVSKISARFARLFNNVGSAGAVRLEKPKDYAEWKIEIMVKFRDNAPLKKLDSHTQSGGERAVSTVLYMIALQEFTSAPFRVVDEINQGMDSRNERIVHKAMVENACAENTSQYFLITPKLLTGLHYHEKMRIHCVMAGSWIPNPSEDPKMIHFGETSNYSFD

Sgs1;Top3;Rmi1 [2] = target: T6, Sgs1;Top3;Rmi1; test: EMSA; 5-40 nM STR, 5 nM DNA; similar to HJ; 35 mM Tris-HCl pH 7.5, 1 mM DTT, 100 ug/ml BSA, 5 mM MgCl2, 130 mM KCl, 30 C, 10 min; native PAGE in TAE (6.5% STR and E3, 7% Esc2); conditions: protein: recombinant;recombinant;recombinant; tags: Flag;V5;GST; copies: 1;1;1; blunt
[3] = four-way Holliday junction of 4 strands

binding result (GST-Esc2-5E): binds | binding result (GST-Esc2-MRΔ): binds
B1: Ubc9 (SUMO E2) (enzyme, budding yeast, UniProt P50623 1-157, looked up)
chain: MSSLCLQRLQEERKKWRKDHPFGFYAKPVKKADGSMDLQKWEAGIPGKEGTNWAGGVYPITVEYPNEYPSKPPKVKFPAGFYHPNVYPSGTICLSILNEDQDWRPAITLKQIVLGVQDLLDSPNPNSPAQEPAWRSFSRNKAEYDKKVLLQAKQYSK
notes: Ubc9, the SUMO E2 enzyme of budding yeast; source: E. coli, purified (previously published procedures)

B2: HJ-DNA (H3/H5/H7/H8) (structured_DNA)
DNA 1: TTGATAAGAGGTCATTTGAATTCATGGCTTAGAGCTTAATTGCTGAATCTGGTGCTGGGATCCAACATGTTTTAAATATG
DNA 2: CATATTTAAAACATGTTGGATCCCAGCACCAGATTCAGCATACGTTACCGATCGTACGTTCGATGCTGGCTACTGCTAGC
DNA 3: GCTAGCAGTAGCCAGCATCGAACGTACGATCGGTAACGTAGTCGATTATCGAGATCAAGCTAGCATAGCCATAGCGCGAC
DNA 4: GTCGCGCTATGGCTATGCTAGCTTGATCTCGATAATCGACATTAAGCTCTAAGCCATGAATTCAAATGACCTCTTATCAA
binding result (Esc2): binds | binding result (Esc2-MRΔ; [3]): no binding | binding result (Esc2-5E; [3]): no binding | binding result (Sgs1;Top3;Rmi1 [1]): binds | binding result (Mms21;Smc5): binds

B3: dsDNA (H3/H4) (dsDNA)
DNA 1: TTGATAAGAGGTCATTTGAATTCATGGCTTAGAGCTTAATTGCTGAATCTGGTGCTGGGATCCAACATGTTTTAAATATG
DNA 2: CATATTTAAAACATGTTGGATCCCAGCACCAGATTCAGCAATTAAGCTCTAAGCCATGAATTCAAATGACCTCTTATCAA
binding result (Sgs1;Top3;Rmi1 [2]): binds | binding result (Esc2-MRΔ; blunt): no binding | binding result (Esc2-5E; blunt): no binding
